Patent publication US20130040994A1

Target: quenched fluorescein gelatin substrate (DQ gelatin, Invitrogen D12054)

Sequence of catalytic rat MMP9 (80 kD active MMP9) (enzyme) (P50282 108-708 limits assumed): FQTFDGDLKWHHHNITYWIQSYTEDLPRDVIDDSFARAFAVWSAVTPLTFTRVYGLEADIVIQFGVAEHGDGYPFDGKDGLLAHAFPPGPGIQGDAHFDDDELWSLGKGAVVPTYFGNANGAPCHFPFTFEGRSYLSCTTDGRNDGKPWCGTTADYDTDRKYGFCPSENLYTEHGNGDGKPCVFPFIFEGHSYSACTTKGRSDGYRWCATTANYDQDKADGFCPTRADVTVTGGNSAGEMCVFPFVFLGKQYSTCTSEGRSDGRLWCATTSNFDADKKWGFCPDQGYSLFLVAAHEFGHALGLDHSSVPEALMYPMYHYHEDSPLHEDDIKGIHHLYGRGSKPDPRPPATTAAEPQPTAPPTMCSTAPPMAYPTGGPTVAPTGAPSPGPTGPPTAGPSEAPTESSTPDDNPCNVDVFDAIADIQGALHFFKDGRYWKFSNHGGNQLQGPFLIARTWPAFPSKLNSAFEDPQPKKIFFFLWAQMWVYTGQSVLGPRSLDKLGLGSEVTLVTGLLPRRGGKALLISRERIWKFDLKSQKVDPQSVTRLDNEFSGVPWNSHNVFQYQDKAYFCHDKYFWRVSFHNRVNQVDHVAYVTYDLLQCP

gelatinase activity by in situ zymography, Intensity (RLU × 10^6), Mean: 1.09e+08 RLU
Substance: catalytic rat MMP9 (80 kD active MMP9) (enzyme)
